Positions count from the first letter of the chain named. In names and notes the source's numbering stands. Like-named read-outs stand apart in the source and are kept apart here.
What was measured:
[1] = system: C=C(O[C@@H]1C=C(C(=O)O)C=C[C@H]1O)C(=O)O; assay: Anthranilate synthase enzyme assay and kinetic analysis, wild type; assay type: biochemical, Agrobacterium tumefaciens; settings: other: wild type, 25° C., pH 7.0, 10 mM L-glutamine, 2.5–100 μM chorismate
Experimental: (§1) Agrobacterium tumefaciens AS wild type and mutant enzymes were expressed in E. coli as described in Example 1. The purification of all the Agrobacterium tumefaciens AS enzymes, including wild type and mutants therof, was performed at 4° C. The cells (approximate wet weight of 1 g) were suspended in 20 ml of purification buffer (50 mM potassium phosphate, pH […], 10 mM 2-mercaptoethanol, 10% glycerol) and lysed by ultrasonication (Branson sonifier Cell Disruptor, W185). Supernatant was collected after centrifugation of the homogenate at 20,000× g for 15 min. The supernatant was subjected to ammonium sulfate fractionation (30 to 65% saturation). The precipitate was collected after centrifugation at 20,000× g for […] and dissolved in 3 ml of the purification buffer and then loaded as a whole on an Econo-Pac 10DG desalting column, pre-equilibrated with the same buffer. Fractions containing the enzyme were detected by the developed assay and pooled. The pooled enzyme (4.3 mls) was loaded on a 10 ml DEAE Sephacel (Pharmacia Biotech) column (1.5×7.5 cm) equilibrated with the same buffer. The column was washed with 30 ml of the purification buffer and the enzyme was eluted with 30 ml of 50 mM NaCl in the same buffer. Fractions containing high AS activity were pooled and precipitated by 65% ammonium sulfate saturation and isolated and desalted as above. Fractions containing the enzyme were pooled and stored at −80° C.
(§2) The standard assay for Agrobacterium tumefaciens AS was performed at 25° C. in an assay buffer containing 100 mM potassium phosphate, pH 7.0, 1 0 mM MgCl2, 1 mM dithiothreitol, 200 μM chorismate and 10 mM L-glutamine. The reaction was started by adding 30 μl of enzyme to the reaction mixture and mixing. The formation of anthranilate was directly monitored by the absorbance increase at […] for 3 min. Initial rate of reaction was calculated as unit absorbance increase per second based on the slope of the absorbance change over the reaction time. Km for chorismate (Km^Cho) was determined in the total volume of 1 ml assay buffer containing 100 mM potassium phosphate, pH 7.0, 10 mM MgCl2, 1 mM dithiothreitol with 10 mM L-glutamine and varying the concentration of chorismate between 2.5–100 μM chorismate. The Km for glutamine (Km^Gln) was determined in the total volume of 1 ml assay buffer containing 100 mM potassium phosphate, pH 7.0, 10 mM MgCl2, 1 mM dithiothreitol with 200 μM chorismate and varying the concentration of L-glutamine between 0.1–2 mM L-glutamine. IC50 for tryptophan (IC50TrP) was determined with in the total volume of 1 ml assay buffer containing 100 mM potassium phosphate, pH 7.0, 10 mM MgCl2, 1 mM dithiothreitol, 10 mM L-glutamine, 200 μM chorismate and varying the concentration of L-tryptophan between 0.1–10 mM L-tryptophan. Kinetic parameters and IC50 of AS were calculated after fitting the data to a non-linear regression program (GraFit).

NC(=O)CC[C@H](N)C(=O)O [2] = assay: as above; assay type: biochemical, Agrobacterium tumefaciens; settings: other: wild type, pH 7.0, 200 μM chorismate, 0.1–2 mM L-glutamine, 25.0 °C
Experimental: as §1, §2

[3] = system: C=C(O[C@@H]1C=C(C(=O)O)C=C[C@H]1O)C(=O)O; assay: Anthranilate synthase enzyme assay and kinetic analysis, S50K mutant; assay type: biochemical, Agrobacterium tumefaciens; settings: other: S50K, pH 7.0, 10 mM L-glutamine, 2.5–100 μM chorismate, 25.0 °C
Excerpt: (§3) Site directed mutagenesis was used to generate ten single amino acid substitutions six sites. The mutations were introduced into the Agrobacterium tumefaciens AS in pMON34705 using the QuikChange™ Site-Directed Mutagenesis Kit (Stratagene). The primers used for site directed mutagenesis were SEQ ID NO:9–42 (FIG. 7; F=forward, R=reverse). Each primer sequence is specific for alteration of the nucleic acid at a specific location in the sequence and thus changing the encoded codon to code for a new amino acid. For example, S51C designates a change from serine to cysteine at amino acid position 51 in the Agrobacterium tumefaciens AS peptide sequence.
(§4) Following mutagenesis the sequence of the entire gene was reconfirmed and the variants expressed and purified from E. coli as described below for the wild type enzyme. The resultant plasmids comprising mutant Agrobacterium tumefaciens AS are suitably cloned into a plasmid for overproduction of protein using the T7 expression system as described in Example 1.
as §1
(§5) The standard assay for Agrobacterium tumefaciens AS was performed at 25° C. in an assay buffer containing 100 mM potassium phosphate, pH 7.0, 1 0 mM MgCl2, 1 mM dithiothreitol, 200 μM chorismate and 10 mM L-glutamine. The reaction was started by adding 30 μl of enzyme to the reaction mixture and mixing. The formation of anthranilate was directly monitored by the absorbance increase at […] for 3 min. Initial rate of reaction was calculated as unit absorbance increase per second based on the slope of the absorbance change over the reaction time. Km for chorismate (Km^Cho) was determined in the total volume of 1 ml assay buffer containing 100 mM potassium phosphate, pH 7.0, 10 mM MgCl2, 1 mM dithiothreitol with 10 mM L-glutamine and varying the concentration of chorismate between 2.5–100 μM chorismate. […] Kinetic parameters and IC50 of AS were calculated after fitting the data to a non-linear regression program (GraFit).

NC(=O)CC[C@H](N)C(=O)O [4] = assay: as above; assay type: biochemical, Agrobacterium tumefaciens; settings: other: S50K, pH 7.0, 200 μM chorismate, 0.1–2 mM L-glutamine, 25.0 °C
Excerpt: as §3, §4, §1, §5

[5] = system: C=C(O[C@@H]1C=C(C(=O)O)C=C[C@H]1O)C(=O)O; assay: Anthranilate synthase enzyme assay and kinetic analysis, S51F mutant; assay type: biochemical, Agrobacterium tumefaciens; settings: other: S51F, pH 7.0, 10 mM L-glutamine, 2.5–100 μM chorismate, 25.0 °C
Excerpt: as §3, §4, §1, §5

NC(=O)CC[C@H](N)C(=O)O [6] = assay: as above; assay type: biochemical, Agrobacterium tumefaciens; settings: other: S51F, pH 7.0, 200 μM chorismate, 0.1–2 mM L-glutamine, 25.0 °C
Excerpt: as §3, §4, §1, §5

[7] = system: C=C(O[C@@H]1C=C(C(=O)O)C=C[C@H]1O)C(=O)O; assay: Anthranilate synthase enzyme assay and kinetic analysis, S51C mutant; assay type: biochemical, Agrobacterium tumefaciens; settings: other: S51C, pH 7.0, 10 mM L-glutamine, 2.5–100 μM chorismate, 25.0 °C
Excerpt: as §3, §4, §1, §5

NC(=O)CC[C@H](N)C(=O)O [8] = assay: as above; assay type: biochemical, Agrobacterium tumefaciens; settings: other: S51C, pH 7.0, 200 μM chorismate, 0.1–2 mM L-glutamine, 25.0 °C
Excerpt: as §3, §4, §1, §5

[9] = system: C=C(O[C@@H]1C=C(C(=O)O)C=C[C@H]1O)C(=O)O; assay: Anthranilate synthase enzyme assay and kinetic analysis, P293G mutant; assay type: biochemical, Agrobacterium tumefaciens; settings: other: P293G, pH 7.0, 10 mM L-glutamine, 2.5–100 μM chorismate, 25.0 °C
Excerpt: as §3, §4, §1, §5

NC(=O)CC[C@H](N)C(=O)O [10] = assay: as above; assay type: biochemical, Agrobacterium tumefaciens; settings: other: P293G, pH 7.0, 200 μM chorismate, 0.1–2 mM L-glutamine, 25.0 °C
Excerpt: as §3, §4, §1, §5

[11] = system: C=C(O[C@@H]1C=C(C(=O)O)C=C[C@H]1O)C(=O)O; assay: Anthranilate synthase enzyme assay and kinetic analysis, P293A mutant; assay type: biochemical, Agrobacterium tumefaciens; settings: other: P293A, pH 7.0, 10 mM L-glutamine, 2.5–100 μM chorismate, 25.0 °C
Excerpt: as §3, §4, §1, §5

NC(=O)CC[C@H](N)C(=O)O [12] = assay: as above; assay type: biochemical, Agrobacterium tumefaciens; settings: other: P293A, pH 7.0, 200 μM chorismate, 0.1–2 mM L-glutamine, 25.0 °C
Excerpt: as §3, §4, §1, §5

[13] = system: C=C(O[C@@H]1C=C(C(=O)O)C=C[C@H]1O)C(=O)O; assay: Anthranilate synthase enzyme assay and kinetic analysis, V48F mutant; assay type: biochemical, Agrobacterium tumefaciens; settings: other: V48F, pH 7.0, 10 mM L-glutamine, 2.5–100 μM chorismate, 25.0 °C
Excerpt: as §3, §4, §1, §5

NC(=O)CC[C@H](N)C(=O)O [14] = assay: as above; assay type: biochemical, Agrobacterium tumefaciens; settings: other: V48F, pH 7.0, 200 μM chorismate, 0.1–2 mM L-glutamine, 25.0 °C
Excerpt: as §3, §4, §1, §5

[15] = system: C=C(O[C@@H]1C=C(C(=O)O)C=C[C@H]1O)C(=O)O; assay: Anthranilate synthase enzyme assay and kinetic analysis, V48Y mutant; assay type: biochemical, Agrobacterium tumefaciens; settings: other: V48Y, pH 7.0, 10 mM L-glutamine, 2.5–100 μM chorismate, 25.0 °C
Excerpt: as §3, §4, §1, §5

NC(=O)CC[C@H](N)C(=O)O [16] = assay: as above; assay type: biochemical, Agrobacterium tumefaciens; settings: other: V48Y, pH 7.0, 200 μM chorismate, 0.1–2 mM L-glutamine, 25.0 °C
Excerpt: as §3, §4, §1, §5

[17] = system: C=C(O[C@@H]1C=C(C(=O)O)C=C[C@H]1O)C(=O)O; assay: Anthranilate synthase enzyme assay and kinetic analysis, N52F mutant; assay type: biochemical, Agrobacterium tumefaciens; settings: other: N52F, pH 7.0, 10 mM L-glutamine, 2.5–100 μM chorismate, 25.0 °C
Excerpt: as §3, §4, §1, §5

NC(=O)CC[C@H](N)C(=O)O [18] = assay: as above; assay type: biochemical, Agrobacterium tumefaciens; settings: other: N52F, pH 7.0, 200 μM chorismate, 0.1–2 mM L-glutamine, 25.0 °C
Excerpt: as §3, §4, §1, §5

[19] = system: Agrobacterium tumefaciens AS; assay: Anthranilate synthase enzyme assay and kinetic analysis of purified enzymes; assay type: biochemical; settings: for IC50: inhibition by L-tryptophan
Experimental: as §1, §2

[20] = Km for chorismate, 10 mM L-glutamine, pH 7.0, 25° C., read-out: Km^Cho
[21] = Km for glutamine, 200 μM chorismate, pH 7.0, read-out: Km^Gln
[22] = 10 mM L-glutamine, 200 μM chorismate

Agrobacterium tumefaciens anthranilate synthase (AgroAS), wild type, SEQ ID NO:4 (Agrobacterium fabrum str. C58)
Km [1]: 8.0 µM
kcat [1]: 0.43 s⁻¹
kcat/Km [1]: 53700 M⁻¹ s⁻¹
Km (NC(=O)CC[C@H](N)C(=O)O [2]): 110 µM

Agrobacterium tumefaciens anthranilate synthase variant S50K, SEQ ID NO:69 (Agrobacterium fabrum str. C58; S50K)
Km [3]: 13 µM
kcat [3]: 0.13 s⁻¹
kcat/Km [3]: 10000 M⁻¹ s⁻¹
Km (NC(=O)CC[C@H](N)C(=O)O [4]): 10 µM

Agrobacterium tumefaciens anthranilate synthase variant S51F, SEQ ID NO:60 (Agrobacterium fabrum str. C58; S51F)
Km [5]: 10 µM
kcat [5]: 0.08 s⁻¹
kcat/Km [5]: 8000 M⁻¹ s⁻¹
Km (NC(=O)CC[C@H](N)C(=O)O [6]): 60 µM

Agrobacterium tumefaciens anthranilate synthase variant S51C, SEQ ID NO:61 (Agrobacterium fabrum str. C58; S51C)
Km [7]: 2.8 µM
kcat [7]: 0.15 s⁻¹
kcat/Km [7]: 53600 M⁻¹ s⁻¹
Km (NC(=O)CC[C@H](N)C(=O)O [8]): 80 µM

Agrobacterium tumefaciens anthranilate synthase variant P293G, SEQ ID NO:64 (Agrobacterium fabrum str. C58; P293G)
Km [9]: 33 µM
kcat [9]: 0.48 s⁻¹
kcat/Km [9]: 14500 M⁻¹ s⁻¹
Km (NC(=O)CC[C@H](N)C(=O)O [10]): 70 µM

Agrobacterium tumefaciens anthranilate synthase variant P293A, SEQ ID NO:63 (Agrobacterium fabrum str. C58; P293A)
Km [11]: 24 µM
kcat [11]: 0.35 s⁻¹
kcat/Km [11]: 14600 M⁻¹ s⁻¹
Km (NC(=O)CC[C@H](N)C(=O)O [12]): 160 µM

Agrobacterium tumefaciens anthranilate synthase variant V48F, SEQ ID NO:58 (Agrobacterium fabrum str. C58; V48F)
Km [13]: 4.5 µM
kcat [13]: 0.24 s⁻¹
kcat/Km [13]: 53300 M⁻¹ s⁻¹
Km (NC(=O)CC[C@H](N)C(=O)O [14]): 80 µM

Agrobacterium tumefaciens anthranilate synthase variant V48Y, SEQ ID NO:59 (Agrobacterium fabrum str. C58; V48Y)
Km [15]: 4.2 µM
kcat [15]: 0.18 s⁻¹
kcat/Km [15]: 42800 M⁻¹ s⁻¹
Km (NC(=O)CC[C@H](N)C(=O)O [16]): 100 µM

Agrobacterium tumefaciens anthranilate synthase variant N52F, SEQ ID NO:62 (Agrobacterium fabrum str. C58; N52F)
Km [17]: 5.5 µM
kcat [17]: 0.21 s⁻¹
kcat/Km [17]: 38200 M⁻¹ s⁻¹
Km (NC(=O)CC[C@H](N)C(=O)O [18]): 40 µM

B1: F298A (protein)
chain: MVTIIQDDGAETYETKGGIQVSRKRRPTDYANAIDNYIEKLDSHRGAVFSSNYEYPGRYTRWDTAIVDPPLGISCFGRKMWIEAYNGRGEVLLDFITEKLKATPDLTLGASSTRRLDLTVNEPDRVFTEEERSKIPTVFTALRAIVDLFYSSADSAIGLFGAFGYDLAFQFDAIKLSLARPEDQRDMVLFLPDEILVVDHYSAKAWIDRYDFEKDGMTTDGKSSDITPDPFKTTDTIPPKGDHRPGEYSELVVKAKESFRRGDLFEVVPGQKFMERCESNPSAISRRLKAINPSPYSAFINLGDQEYLVGASPEMFVRVSGRRIETCPISGTIKRGDDPIADSEQILKLLNSKKDESELTMCSDVDRNDKSRVCEPGSVKVIGRRQIEMYSRLIHTVDHIEGRLRDDMDAFDGFLSHAWAVTVTGAPKLWAMRFIEGHEKSPRAWYGGAIGMVGFNGDMNTGLTLRTIRIKDGIAEVRAGATLLNDSNPQEEEAETELKASAMISAIRDAKGTNSAATKRDAAKVGTGVKILLVDHEDSFVHTLANYFRQTGATVSTVRSPVAADVFDRFQPDLVVLSPGPGSPTDFDCKATIKAARARDLPIFGVCLGLQALAEAYGGELRQLAVPMHGKPSRIRVLEPGLVFSGLGKEVTVGRYHSIFADPATLPRDFIITAESEDGTIMGIEHAKEPVAAVQFHPESIMTLGQDAGMRMIENVVVHLTRKAKTKAA
kcat [19]: 0.46 s⁻¹
Km [19, 20]: 9.2 µM
Km [19, 21]: 100 µM
IC50 [19, 22]: 5.5 µM

B2: F298W (protein)
chain: B1 chain with A298W
kcat [19]: 0.44 s⁻¹
Km [19, 20]: 18 µM
Km [19, 21]: 140 µM
IC50 [19, 22]: 450 µM

— US7217865B2, “Transgenic high tryptophan plants” (Monsanto Technology LLC, priority 2001, dated 2007)
